This passage reports % of B3Z cells activated (lacZ reporter, flow cytometry); lymph node cells of mice with B16/OVA tumors injected with α-gal glycolipids and % of B3Z cells activated (lacZ reporter, flow cytometry); lymph node cells of mice with PBS treated B16/OVA tumors results from patent publication US20060251661A1.

For this assay, the target named is OVA peptide 257-264 (SIINFEKL) presented on MHC class I molecule K^b of antigen presenting cells (mouse; chicken). Kind of assay: cell-based or functional assay.

On to “α-β T cell receptor (TCR) of B3Z CD8+ T hybridoma cells, specific for OVA257-264 presented on K^b”, for which the % of B3Z cells activated (lacZ reporter, flow cytometry); lymph node cells of mice with B16/OVA tumors injected with α-gal glycolipids lay in the range of 1.07 to 3.66% and the % of B3Z cells activated (lacZ reporter, flow cytometry); lymph node cells of mice with PBS treated B16/OVA tumors lay in the range of 0 to 0.14%.
